Three substances from publication PMC9150345 can be followed below.

Experiment [1] deals with hTBPQ80, hTBP with an extension of 80 glutamine residues (amino acids 50-142), fused to the N-terminal fragment of Venus (human) (UniProt P20226). Briefly: split reporter (BiFC, NanoBiT); BiFC in HEK293 cells co-transfected with VC- and VN- constructs and pCAG-mCherry; read 48 h after transfection; interaction percent = green cells per 100 red cells.
The target in experiment [2] is Antp-hTBP heterodimer (VCAntp-VNTBP, Venus reconstituted by BiFC) (Drosophila | human) (UniProt P02833).
Sequence of Antp-hTBP heterodimer (VCAntp-VNTBP, Venus reconstituted by BiFC) (Drosophila | human) (P02833 whole entry, chain 1 of 2): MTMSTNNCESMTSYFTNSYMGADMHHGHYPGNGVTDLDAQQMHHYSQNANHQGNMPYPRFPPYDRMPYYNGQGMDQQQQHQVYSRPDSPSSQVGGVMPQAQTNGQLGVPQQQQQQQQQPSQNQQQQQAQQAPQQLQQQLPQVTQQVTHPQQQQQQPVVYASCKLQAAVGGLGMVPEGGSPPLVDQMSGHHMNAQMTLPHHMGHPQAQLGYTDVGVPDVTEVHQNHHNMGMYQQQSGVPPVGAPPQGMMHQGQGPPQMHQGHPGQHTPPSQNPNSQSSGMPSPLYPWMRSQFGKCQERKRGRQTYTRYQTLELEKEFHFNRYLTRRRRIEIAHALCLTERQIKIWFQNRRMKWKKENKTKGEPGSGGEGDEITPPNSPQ
Sequence of Antp-hTBP heterodimer (VCAntp-VNTBP, Venus reconstituted by BiFC) (Drosophila | human) (P20226 whole entry, chain 2 of 2, further chain): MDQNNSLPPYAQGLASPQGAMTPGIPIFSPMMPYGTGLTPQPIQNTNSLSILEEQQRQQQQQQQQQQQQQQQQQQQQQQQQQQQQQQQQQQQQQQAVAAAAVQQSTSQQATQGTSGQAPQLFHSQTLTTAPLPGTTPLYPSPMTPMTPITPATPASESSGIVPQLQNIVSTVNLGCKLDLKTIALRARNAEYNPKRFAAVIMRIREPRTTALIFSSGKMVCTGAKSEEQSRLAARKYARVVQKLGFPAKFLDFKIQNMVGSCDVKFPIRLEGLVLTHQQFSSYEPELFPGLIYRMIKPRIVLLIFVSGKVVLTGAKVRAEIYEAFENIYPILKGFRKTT

Sequence of hTBPQ80, hTBP with an extension of 80 glutamine residues (amino acids 50-142), fused to the N-terminal fragment of Venus (human) (P20226 whole entry, the tested form may be a part): as the sequence (P20226 whole entry, chain 2 of 2, further chain) above
Sequence of AntpΔN, Antp lacking the N-terminal region (amino acids 1-269), fused to the C-terminal fragment of Venus (P02833 270-378, stated change not applied): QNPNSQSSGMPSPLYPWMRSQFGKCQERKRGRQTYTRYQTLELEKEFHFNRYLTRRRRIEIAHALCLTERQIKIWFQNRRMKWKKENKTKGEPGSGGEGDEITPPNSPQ
Sequence of Antennapedia (Antp), fused to the C-terminal fragment of Venus (P02833 whole entry, the tested form may be a part): as the sequence (P02833 whole entry, chain 1 of 2) above

In turn, “Antennapedia (Antp), fused to the C-terminal fragment of Venus (from UniProt P02833 1-378) (natural protein)” showed a percent of transfected cells showing BiFC in experiment [1] of 78%.

In experiment [1], “AntpΔN, Antp lacking the N-terminal region (amino acids 1-269), fused to the C-terminal fragment of Venus (from UniProt P02833 270-378) (domain or fragment)” showed a percent of transfected cells showing BiFC of 47%.

For the substance “Bric-a-brac interacting protein BIP2 (2–89) fused to ECFP (from UniProt Q9XZU7 2-89) (domain or fragment)”, the Antp transactivation on pGLH11 with co-expressed TBP and BIP2, percent of Antp alone (Fig. 5D) in experiment [2] was determined as 74%.
